# Measurements from publication PMC9213720 (iScience, 2022).
# B1: zSIGIRR-TIR (domain or fragment)
# chain: KMYDAYISYVNNENDRKFVNFILKPHLENKYSHKLLLNNTNILPGAEPSAELLMNISRCQRLIVVLSQSYLEQEWCTTNFRQGLWHLIELSRKPIFIIFQSQQKQISQDISQQLRQHQPCITMITWGAHSMTPSSGFWKELALVMPRK
# Target: the molecule itself
protein,measurement,value
B1,stoichiometry N,2
